Data from IntAct's records for PubMed 29374201.

B1: Complement factor H (Homo sapiens), P08603-2 (parent)
chain: MRLLAKIICLMLWAICVAEDCNELPPRRNTEILTGSWSDQTYPEGTQAIYKCRPGYRSLGNVIMVCRKGEWVALNPLRKCQKRPCGHPGDTPFGTFTLTGGNVFEYGVKAVYTCNEGYQLLGEINYRECDTDGWTNDIPICEVVKCLPVTAPENGKIVSSAMEPDREYHFGQAVRFVCNSGYKIEGDEEMHCSDDGFWSKEKPKCVEISCKSPDVINGSPISQKIIYKENERFQYKCNMGYEYSERGDAVCTESGWRPLPSCEEKSCDNPYIPNGDYSPLRIKHRTGDEITYQCRNGFYPATRGNTAKCTSTGWIPAPRCTLKPCDYPDIKHGGLYHENMRRPYFPVAVGKYYSYYCDEHFETPSGSYWDHIHCTQDGWSPAVPCLRKCYFPYLENGYNQNYGRKFVQGKSIDVACHPGYALPKAQTTVTCMENGWSPTPRCIRVSFTL
partner: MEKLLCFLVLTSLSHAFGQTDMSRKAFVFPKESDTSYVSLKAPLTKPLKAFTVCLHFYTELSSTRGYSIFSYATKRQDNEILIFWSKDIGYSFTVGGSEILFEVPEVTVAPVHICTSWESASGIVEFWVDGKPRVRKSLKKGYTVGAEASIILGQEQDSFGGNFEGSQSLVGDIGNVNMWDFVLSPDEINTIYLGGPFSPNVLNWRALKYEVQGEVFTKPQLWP
B2: Complement factor H (Homo sapiens), P08603 (parent)
chain: MRLLAKIICLMLWAICVAEDCNELPPRRNTEILTGSWSDQTYPEGTQAIYKCRPGYRSLGNVIMVCRKGEWVALNPLRKCQKRPCGHPGDTPFGTFTLTGGNVFEYGVKAVYTCNEGYQLLGEINYRECDTDGWTNDIPICEVVKCLPVTAPENGKIVSSAMEPDREYHFGQAVRFVCNSGYKIEGDEEMHCSDDGFWSKEKPKCVEISCKSPDVINGSPISQKIIYKENERFQYKCNMGYEYSERGDAVCTESGWRPLPSCEEKSCDNPYIPNGDYSPLRIKHRTGDEITYQCRNGFYPATRGNTAKCTSTGWIPAPRCTLKPCDYPDIKHGGLYHENMRRPYFPVAVGKYYSYYCDEHFETPSGSYWDHIHCTQDGWSPAVPCLRKCYFPYLENGYNQNYGRKFVQGKSIDVACHPGYALPKAQTTVTCMENGWSPTPRCIRVKTCSKSSIDIENGFISESQYTYALKEKAKYQCKLGYVTADGETSGSITCGKDGWSAQPTCIKSCDIPVFMNARTKNDFTWFKLNDTLDYECHDGYESNTGSTTGSIVCGYNGWSDLPICYERECELPKIDVHLVPDRKKDQYKVGEVLKFSCKPGFTIVGPNSVQCYHFGLSPDLPICKEQVQSCGPPPELLNGNVKEKTKEEYGHSEVVEYYCNPRFLMKGPNKIQCVDGEWTTLPVCIVEESTCGDIPELEHGWAQLSSPPYYYGDSVEFNCSESFTMIGHRSITCIHGVWTQLPQCVAIDKLKKCKSSNLIILEEHLKNKKEFDHNSNIRYRCRGKEGWIHTVCINGRWDPEVNCSMAQIQLCPPPPQIPNSHNMTTTLNYRDGEKVSVLCQENYLIQEGEEITCKDGRWQSIPLCVEKIPCSQPPQIEHGTINSSRSSQESYAHGTKLSYTCEGGFRISEENETTCYMGKWSSPPQCEGLPCKSPPEISHGVVAHMSDSYQYGEEVTYKCFEGFGIDGPAIAKCLGEKWSHPPSCIKTDCLSLPSFENAIPMGEKKDVYKAGEQVTYTCATYYKMDGASNVTCINSRWTGRPTCRDTSCVNPPTVQNAYIVSRQMSKYPSGERVRYQCRSPYEMFGDEEVMCLNGNWTEPPQCKDSTGKCGPPPPIDNGDITSFPLSVYAPASSVEYQCQNLYQLEGNKRITCRNGQWSEPPKCLHPCVISREIMENYNIALRWTAKQKLYSRTGESVEFVCKRGYRLSSRSHTLRTTCWDGKLEYPTCAKR
partner: B1 partner
B3: Complement factor H (Homo sapiens), P08603-2 (parent)
chain: B1 chain

Variants of: B1
Settings: with crp_human CRP

Row | Variant | effect of a mutation on the interaction
1 | Y402H | decreasing interaction strength

Variants of: B2
Settings: with crp_human CRP

Row | Variant | effect of a mutation on the interaction
2 | Y402H | decreasing interaction strength

Variants of: B3
Settings: with ptx3_human PTX3, P26022
Chain of ptx3_human PTX3, P26022 (P26022 whole entry): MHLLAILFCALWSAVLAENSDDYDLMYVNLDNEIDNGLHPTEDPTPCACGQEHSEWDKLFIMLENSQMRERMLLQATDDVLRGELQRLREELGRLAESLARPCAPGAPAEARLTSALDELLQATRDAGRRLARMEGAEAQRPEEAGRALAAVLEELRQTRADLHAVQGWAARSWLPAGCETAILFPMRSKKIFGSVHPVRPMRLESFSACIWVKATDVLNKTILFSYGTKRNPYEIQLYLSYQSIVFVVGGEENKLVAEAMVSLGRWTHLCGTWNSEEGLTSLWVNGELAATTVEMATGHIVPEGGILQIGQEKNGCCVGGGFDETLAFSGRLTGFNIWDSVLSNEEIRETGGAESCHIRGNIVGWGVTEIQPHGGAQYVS

Row | Variant | effect of a mutation on the interaction
3 | Y402H | disrupting interaction strength

Variants of: B3
Settings: with ptx3_human PTX3, P26022
Remark: another data set of the same source

Row | Variant | effect of a mutation on the interaction
4 | Y402H | decreasing interaction strength
